# Reference: the DeepSol protein solubility set
# Assay: soluble on expression in E. coli; label from the status in PepcDB or PDB records
row,Sequence,soluble on expression in E. coli
1,MKQDVILVLDCGATNVRAIAVDRQGKIVARASTANASDIAAENSAWHQWSLDAILQRFADCCRSLSSALSECVVRGITVTTFGVDGALVDAQGKLLYPVISWKCPRTAAVMETIERFISPRQLQTLSGVGAFSFNTLYKLVWLKENHPRLLEQAHCWLFISSLINHRLTGEFTTDITMAGTSQLLDIHQRDFSPEILQATGLARRLFPRIVEAGAPIGTLQTDAARLLGLPAGVPVISAGHDTQFALFGAGAQQGEPVLSSGTWEILMVRSGQVDTSLLSQYPGSTCELDSQSGLYNPGMQWLASGVLEWVRKLLWTPETPWQTLIDEARAIPAGAEGVRMQCDLLACQNAGWQGVTLNTTRGHFYRAALEGLTAQLQRNLRTLEKIGHFNATELLLVGGGSRNALWNQIKANQLDIPIKVLDDAETTVAGAAMFGWYGVGEFSSPEQARAQVNYQYRYFWPQTEPEIIEGV,not soluble
2,MKQEFSSIQFKAALLAAGLVLQVPAHANDGTIVITGAITDTTCIIEDPSDPNHTKVVQLPKISKSALKVKGDQAGRTPFTISLRDCPADLGNGVKVYFEPGPTTNYATGDLKAYKLAYATNPKATPLNSIVAATPATGVEIRISNLDDSKIPMGVDVTNQRAQGFNPVEQTGDTNKRTVTMRYLASYVKADGDIQASAITTYVGFSVVYP,not soluble
3,MKQFSGLSRTIQGNHLLDTCAIDILKIGHRPLVLCAKQEYNTTVESFVKVLTCHGLIVKIVYMEEWDQNSVEECGEVGFRHRADHIIGIGNSSVAACTKAVADLLDLPAVLIPTSPFTTLPWVSVENKKRERPLFNESIQLIIADREQLLTQPTSELINGVVNTLLYLAAIKEVKRNHLFSLVDDILIRSFESVLLRGSLQAIEDFEARILSKEVQDVLEVLSTCVTLDLPSDAWDVIQQIESKLSERREDLVDEPLKRNVVLYLLLSYLTQESEEFQARLKWCQQLLLSANSSNLLSLEAVLKEIALEMGEDGSTRC,soluble
4,MKQHQSADNSQGQLYIVPTPIGNLADITQRALEVLQAVDLIAAEDTRHTGLLLQHFGINARLFALHDHNEQQKAETLLAKLQEGQNIALVSDAGTPLINDPGYHLVRTCREAGIRVVPLPGPCAAITALSAAGLPSDRFCYEGFLPAKSKGRRDALKAIEAEPRTLIFYESTHRLLDSLEDIVAVLGESRYVVLARELTKTWETIHGAPVGELLAWVKEDENRRKGEMVLIVEGHKAQEEDLPADALRTLALLQAELPLKKAAALAAEIHGVKKNALYKYALEQQG,soluble
5,MKQIFIGIIRFYQKFISPMTPPTCRFYPTCSHYGLEAFQKHGALKGFWLTCKRILKCHPFHPGGFDPVPDKKDDKVNSLEHHHHHH,not soluble
6,MKQLTLAKTVKGVGIGLHKGEPIEITLEPLEANSGIVFFRSDLNASYKASPENVINTQMATVLGDDRGFISTIEHLMSAINAYGIDNVRIVLNANEAPVMDGSSISFCMMLDEAGVKELDAPKKIMVIKKPIEVRDGNKFVRLTPTKEPRINYTIKFDNAVIGEQSYNFEFSKKNYIENIARARTFGFLKDVQALRSMNLALGGSLENTIVVDENRILNPEGLRFKDEFVRHKILDAIGDLTLLGYRVFGDYTSYAGSHHLNHLLTKEVLKDKDAYEIVSLEKTTQKAYEKVFALEHHHHHH,soluble
7,MKQLYGVIGNPIGHSLSPVMHNDAFEHLKMDAHYHAFLVKEEVLGEAVRGLKALGISGFNVTTPHKVAIMDYLDEIDPLAKQIGAVNTVVHKDGKLIGYNTDGIGFVRALQSISSEPLQEKRILLLGAGGASRAIYFSLADAGVKEIDVANRTVDKAKELIAACTATVHSVALSLEKATKEQGNYDIIIQTTTIGMHPRVEHTPLQISSLKKGTIVSDIIYNPFETKILCEAKEQGAIIQNGIDMFVYQGALAFEMWTGCVPNIERMKQLVIRNLEANIYVNRKTKKIFTCTSTSFNTNFSSRKRRSK,not soluble
8,MKQPGEELQETLTELDDRAVVDYLIKNPEFFIRNARAVEAIRVPHPVRGTVSLVEWHMARARNHIHVLEENMALLMEQAIANEGLFYRLLYLQRSLTAASSLDDMLMRFHRWARDLGLAGASLRLFPDRWRLGAPSNHTHLALSRQSFEPLRIQRLGQEQHYLGPLNGPELLVVLPEAKAVGSVAMSMLGSDADLGVVLFTSRDASHYQQGQGTQLLHEIALMLPELLERWIERV,not soluble
9,MKQSLFGRVRDAILADFHNVLDEKERKNPIAMLNQYLRDSEREITKIEKLIERHKTLKSNFARELEQARYFVNKRSKQAIIAQEADELQLHERALEEVAYYEGQVTRLEEMYAGVVEQIDELERRLSEMKNKLKEMHAKRMELMARENMAHANRRMNTAMHKMDENNPFLRFEEIEDHIRDLETRMNEEHERDTFDMKIAKLEREMKEKNDVSLTKELTKLEHHHHHH,soluble
10,MKQTQRHDAIIELVKKQGYVSTEELVEHFSVSPQTIRRDLNDLAEQNMILRHHGGAALPSSSVNTPWHDRKATQTEEKERIARKVAAQIPNGSTLFIDIGTTPEAVAHALLGHSNLRIVTNNLNVANTLMAKEDFRIILAGGELRSRDGGIIGEATQDFIAQFRLDFGILGISGIDSDGSLLEFDYHEVRTKRAIIENSRHVMLVVDHSKFGRNAMVNMGSISMVDAVYTDTLPPPGVMQVLTENHIQLELCLEHHHHHH,soluble
11,MKQTVAAYIAKTLESAGVKRIWGVTGDSLNGLSDSLNRMGTIEWMSTRHEEVAAFAAGAEAQLSGELAVCAGSCGPGNLHLINGLFDCHRNHVPVLAIAAHIPSSEIGSGYFQETHPQELFRECSHYCELVSSPEQIPQVLAIAMRKAVLNRGVSVVVLPGDVALKPAPEGATMHWYHAPQPVVTPEEEELRKLAQLLRYSSNIALMCGSGCAGAHKELVEFAGKIKAPIVHALRGKEHVEYDNPYDVGMTGLIGFSSGFHTMMNADTLVLLGTQFPYRAFYPTDAKIIQIDINPASIGAHSKVDMALVGDIKSTLRALLPLVEEKADRKFLDKALEDYRDARKGLDDLAKPSEKAIHPQYLAQQISHFAADDAIFTCDVGTPTVWAARYLKMNGKRRLLGSFNHGSMANAMPQALGAQATEPERQVVAMCGDGGFSMLMGDFLSVVQMKLPVKIVVFNNSVLGFVAMEMKAGGYLTDGTELHDTNFARIAEACGITGIRVEKASEVDEALQRAFSIDGPVLVDVVVAKEELAIPPQIKLEQAKGFSLYMLRAIISGRGDEVIELAKTNWLR,soluble
12,MKQVCVLGNGQLGRMLRQAGEPLGIAVWPVGLDAEPAAVPFQQSVITAEIERWPETALTRQLARHPAFVNRDVFPIIADRLTQKQLFDKLHLPTAPWQLLAERSEWPAVFDRLGELAIVKRRTGGYDGRGQWRLRANETEQLPAECYGECIVEQGINFSGEVSLVGARGFDGSTVFYPLTHNLHQDGILRTSVAFPQANAQQQARAEEMLSAIMQELGYVGVMAMECFVTPQGLLINELAPRVHNSGHWTQNGASISQFELHLRAITDLPLPQPVVNNPSVMINLIGSDVNYDWLKLPLVHLHWYDKEVRPGRKVGHLNLTDSDTSRLTATLEALIPLLPPEYASGVIWAQSKFG,soluble
13,MKQWIAALLLMLIPGVQAAKPQKVTLMVDDVPVAQVLQALAEQEKLNLVVSPDVSGTVSLHLTDVPWKQALQTVVKSAGLITRQEGNILSVHSIAWQNDNIARQEAEQARAQANLPLENRSITLQYADAGELAKAGEKLLSAKGSMTVDKRTNRLLLRDNKTALSALEQWVAQMDLPVGQVELSAHIVTINEKSLRELGVKWTLADAQHAGGVGQVTTLGSDLSVATATTHVGFNIGRINGRLLDLELSALEQKQQLDIIASPRLLASHLQPASIKQESEIPYQVSSGESGATSVEFKEAVLGMEVTPTVLQKGRIRLKLHISQNVPGQVLQQADGEVLAIDKQEIETQVEVKSGETLALGGIFTRKNKSGQDSVPLLGDIPWFGQLFRHDGKEDERRELVVFITPRLVSSELEHHHHHH,not soluble
14,MKQYIPFIRKDPVVPVIRLQGVIASGPRGGLSDQGLAAVIEKAFRRGKPAGVALVINSPGGSPVQSSLIAARIRRLASEKGVRVHAFVEDVAASGGYWLACAGDEIWVDESSLVGSIGVIFSSFGFHEFMARNGIERRVHTAGRSKSLADPFLPEKPEDVERLKALQEPIHRAFIEYVKRHRGTRLDLNADLFNADVWTGQEAVRLGLADGVAHLVPKLQENYGDKVRLVPYGQRRPFLQRLGMSLAGQALAEVENRALWARYGLLEHHHHHH,not soluble
15,MKRDQLKSLLLGAILLAGITLPAKAQIGEQRHNFAIGINGGANYSTVSFQPTIKQNGLLGITGGVTARYISEKYFAMICGAQLELNFSQRGWDEKFDPEQGFSSEDSYVRTMNYLEIPFLAHLAFGKDKGVQFFVNLGPQIGLLLNESEKRKGTWETANRAPNEQYGKWVENKFDYGIVGGGGIEVRTKAGNFLLEGRYYFGLADFYNSTKKDYFSRSANSTITAKITYLFDIKK,not soluble
16,MKREEYLKNYLESYLRKKEVSLTEEEFNVILREFLRFAYNPEESGQEIADTADGSKTLIHKTYGEPYHSQTAGAIRESLYKFVRPSRILEKAKERKVIRILDVGFGLGYNLAVALKHLWEVNPKLRVEIISFEKELLKEFPILPEPYREIHEFLLERVPEYEGERLSLKVLLGDARKRIKEVENFKADAVFHDAFSPYKNPELWTLDFLSLIKERIDEKGYWVSYSSSLSVRKSLLTLGFKVGSSREIGRKRKGTVASLKAPVPPMEENEVRKLVLSPFAVPMRDEKLDKEPLEILIDYLLKVYKISR,soluble
17,MKREKKSFHLHMLSDATGETLISVGRAVASQYTMSQATEHIYPMIRNKTQLQRALDEIQQEPGIVLYTIIDKKIKILLRKRCEKIEIPCIDILHPVLNAFKSYLGIPTNLRVSAQHGLNADYFRRIEALDFTIEHDDGQSPNSLSDADVILVGISRTSKTPTSIYLANRGIKTANVPLIPGINLPDTLLGAKNALIIGLIASVERISHIRQNRNLGDDFSLESYTDRINISEELTYAKRICERFSWPVIDVTRRSIEETAAEIFELLSRFREGK,not soluble
18,MKRIARLLLSCICLALLSGCLYPQERLKQNQIPYKDQVAAVQSAVDEYRKATGGLLPIKTRDMNTPMYLKYPVDFQKLVPRYMQEPPGNAYESGGVFQYMIIDAETNPTVKLLDLRLAERIRDLKLRLSMYTDKHKYPPFQDVVAPGVFTLDYKKLGYKEPPYVVSPFSGNNLPFVIDGNGEIYIDYRSDLYAALKKYPHHYKPGDDIRPILTDHSLFVPAYSLPYTIDAKTNEPIFFTK,not soluble
19,MKRIDLLLNVLDSTFDKESWYAPFKYAIEGLTAEQAMWKPAGETTNTIWENVNHLTYYKERLAANLEGREWTHNLDGNDTFYLTKQSNNDTEWKEVVERSENAQRNLRQVLSAISERELEQNSLEGKLLDIMLHDAYHTGQIIQLRKMQGAWPSKR,not soluble
20,MKRIGLTGNIGCGKSTVAQMFRELGAYVLDADKLIHSFYRKGHPVYEEVVKTFGKGILDEEGNIDRKKLADIVFKDEEKLRKLEEITHRALYKEIEKITKNLSEDTLFILEASLLVEKGTYKNYDKLIVVYAPYEVCKERAIKRGMSEEDFERRWKKQMPIEEKVKYADYVIDNSGSIEETYKQVKKVYEELTRDPLEHHHHHH,soluble
21,MKRIGVLTSGGDSPGMNAAIRAVVRKAIFHDIEVYGIYHGYAGLISGHIEKLELGSVGDIIHRGGTKLYTARCPEFKDPEVRLKGIEQLKKHGIEGLVVIGGDGSYQGAKKLTEQGFPCVGVPGTIDNDIPGTDFTIGFDTALNTVIDAIDKIRDTATSHERTYVIEVMGRHAGDIALWAGLADGAETILIPEEEYDMEDVIARLKRGSERGKKHSIIVVAEGVGSAIDIGKHIEEATNFDTRVTVLGHVQRGGSPSAQDRVLASRLGARAVELLIAGKGGRCVGIQDNKLVDHDIIEALAQKHTIDKDMYQLSKELSI,not soluble
22,MKRMHNPAHPGEVLREYLGELTVTNAAAKLGVSRVALSRILNGTNGISADMALRLEDALGTSAEMWAAMQFKYDLWVASQQPRPKITRLHV,not soluble
